Test results from patent CN107383198A (ZONHON BIOPHARMA INST INC, dated 2017).

T1: 提取于人血浆的胱抑素C (native human cystatin C, HyTest) (human, UniProt P01034 27-146)
T1 construct: mature; also called CysC; 天然CysC蛋白
T1 sequence (looked up): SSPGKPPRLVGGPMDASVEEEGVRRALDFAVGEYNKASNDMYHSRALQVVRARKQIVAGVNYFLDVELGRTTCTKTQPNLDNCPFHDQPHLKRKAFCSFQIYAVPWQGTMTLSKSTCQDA


Experiments:
[1] = molecular target: T1, 提取于人血浆的胱抑素C (native human cystatin C, …); experiment: Western blot of native CysC (HyTest) with HRP-labelled scFv
[2] = molecular target: T1, 提取于人血浆的胱抑素C (native human cystatin C, …); experiment: indirect ELISA, CysC (HyTest) coated at 1 μg/mL, hybridoma supernatant, HRP goat anti-mouse IgG

binding result [1] | binding result [2] | Binder
binds | – | 单链抗体C12 (anti-human cystatin C scFv C12) (scFv, Used HRP-labelled in the Western blot and colloidal-gold-labelled in the test card; also called C12-scFv-(HIS)6; C12-HRP) scFv: QVQLQQPGSELVRPGTSVKLSCRASGYTFTSYWMHWVKQRHGQGLEWLGNVDPGSGTTNYEENFKTKGTLTVDTSSSTVYMHLSSLTSEDSAVYYCTAGFDYWGQGTTLTVSAGGGGSGGGGSGGGGSDIQMNQSPSSLSASLGDTITITCHASQNINVWLGWFQQKPENIPKLLIYKASTLHTGVPSRFSGSGSGTVFTLTISSPQPEDIATYYCQQGQTYPLTFGAGTKLEIK
– | binds | 抗体M12 (antibody secreted by hybridoma cell line M12) (antibody, V domains shown, Mouse monoclonal antibody tested as hybridoma culture supernatant and detected with HRP goat anti-mouse IgG) VH: QVQLQQPGSELVRPGTSVKLSCRASGYTFTSYWMHWVKQRHGQGLEWLGNVDPGSGTTNYEENFKTKGTLTVDTSSSTVYMHLSSLTSEDSAVYYCTAGFDYWGQGTTLTVSA VL: DIQMNQSPSSLSASLGDTITITCHASQNINVWLGWFQQKPENIPKLLIYKASTLHTGVPSRFSGSGSGTVFTLTISSPQPEDIATYYCQQGQTYPLTFGAGTKLEIK
